From patent US20250129178A1 (INNOBATION BIO, published 2025)

B1: 9E11 antibody (antibody, V domains shown)
VH: QVQLKESGPGLVKPSQSLSLTCTVTGYSITSDYAWNWIRQFPGNKLEWMGYISYSGSTRYNPSLKSRISITRDTSKNQFFLQLNSVTTEDTATYYCARGAAGFAYWGQGTLVTVSA
VL: DIVMTQSPASQSASLGESVTITCLASQTIGTWLAWYQQKPGKSPQLLIYAATSLADGVPSRFSGSGSGTEFSFKISSLQAEDFVSYYCQQLYSTPWTFGGGTKLEIK
notes: Mouse hybridoma monoclonal antibody, detected with anti-mouse IgG
B2: 9E8 antibody (antibody, V domains shown)
VH: EVQLQQSGPELVKPGASMKISCKASGYSFTGYTMNWVKQSHGKNLEWIGLINPYNGGTSYNQKFKGKATLTVDKSSSTAYMELLSLTSEDSAVYYCARVGGSSWYFDVWGAGTTVTVSS
VL: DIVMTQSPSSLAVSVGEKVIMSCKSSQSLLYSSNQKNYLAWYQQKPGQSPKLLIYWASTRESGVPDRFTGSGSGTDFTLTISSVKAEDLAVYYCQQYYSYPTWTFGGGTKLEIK
notes: Mouse hybridoma monoclonal antibody, detected with anti-mouse IgG; The printed VH and VL are identical to those of 3A8
B3: 3A8 antibody (antibody, V domains shown)
VH: B2 VH
VL: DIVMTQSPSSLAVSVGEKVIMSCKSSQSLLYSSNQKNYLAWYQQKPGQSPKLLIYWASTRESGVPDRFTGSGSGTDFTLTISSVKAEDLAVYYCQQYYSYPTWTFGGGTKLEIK
notes: Mouse hybridoma monoclonal antibody; Tested as hybridoma culture supernatant in ELISA and at 1 ug in flow cytometry, detected with anti-mouse IgG; The printed VH and VL are identical to those of 9E8
B4: 7C3 antibody (antibody, V domains shown)
VH: EVQLQQSGAELMRPGASVKISCKATGYTFSAYWIEWVKQRPGHGLEWIGEILPGSGSTKYNEKFKGKATFTADTSSNTAYMQLSSLTSEDSAVYYCARGDYYAMDYWGQGTSVTVSS
VL: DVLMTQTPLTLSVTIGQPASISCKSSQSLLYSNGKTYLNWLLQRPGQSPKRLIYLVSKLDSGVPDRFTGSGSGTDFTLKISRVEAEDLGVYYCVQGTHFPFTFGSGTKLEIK
notes: as for B1
B5: 5A9 antibody (antibody, V domains shown)
VH: EVQLEESGPAVIKPSQSLSLTCIVSGFSITSSSYCWHWIRQPPGKGLEWMGRICYEGSIYYSPSIKSRFTISRDTSLNKFFIQLSSVTNEDTAMYYCSRENRLLKDAMDYWGQGTSVTVSS
VL: DIVMTQSPSSLAVSAGEKVTMSCKSSQSLLSSRTRKNYLAWYQQKPGQSPKLLIYWASTRESGVPDRFTGSGSGTDFTLTISSVQAEDLAVYYCKQSYNLRTFGGGTKLEIK
notes: as for B1
B6: 4G11 antibody (antibody, V domains shown)
VH: EVQLQQSGPELVKTGDSVKISCKASGYSFTGYYMHWVKQSHGKSLEWIGYISCYNGATSYSQKFKGKATFTVDTSSSTAYMQFNSLTSEDSAVYYCARWDRDWFAYWGQGTLVTVSA
VL: DIVMTQSHKFMSTSVGDRVSITCKASQDVGIAVAWYQQKPGQSPKLLIYWASTRHTGVPDRFTGSGSGTDFTLTISNVQSEDLADYFCQQYSSYPFTFGSGTKLEIK
notes: as for B1

The binders below were run against T1, mesothelin on NCI-H2052 mesothelioma cells overexpressing mesothelin (UniProt Q13421 296-598) (assay: flow cytometry on NCI-H2052 cells, 1 ug antibody, PE goat anti-mouse IgG secondary).
T1 construct: whole, on cells; NCI-H2052 is a human cell line and the positive control is anti-human mesothelin; also called H2052 cells; cells expressing mesothelin
T1 sequence (Q13421 other isoform, or with tags, fused parts or gaps limits assumed): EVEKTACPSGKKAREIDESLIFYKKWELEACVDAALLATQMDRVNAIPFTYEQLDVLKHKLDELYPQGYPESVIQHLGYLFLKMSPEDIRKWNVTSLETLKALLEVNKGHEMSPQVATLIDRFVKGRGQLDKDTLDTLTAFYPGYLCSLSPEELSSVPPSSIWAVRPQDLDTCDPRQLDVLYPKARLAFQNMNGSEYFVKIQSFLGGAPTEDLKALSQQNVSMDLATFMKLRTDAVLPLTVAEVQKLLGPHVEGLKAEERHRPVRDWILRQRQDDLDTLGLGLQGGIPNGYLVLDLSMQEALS

Binder | Mean | Median
B1 | 81.4 | 69.1
B2 | 77.7 | 56.2
B3 | 861 | 704
B4 | 528 | 444
B5 | 63.2 | 58.5
B6 | 1260 | 1120

The binders below were run against T2, mesothelin protein (Acrobiosystems, cat #MSN-H5223) (UniProt Q13421 296-580) (assay: ELISA, mesothelin peptide coated 100 ng/well, 100 ul hybridoma culture, anti-mIgG-HRP).
T2 construct: The catalogue number is printed only for the immunogen; also called mesothelin peptide; MSLN
T2 sequence (Q13421 other isoform, or with tags, fused parts or gaps limits assumed): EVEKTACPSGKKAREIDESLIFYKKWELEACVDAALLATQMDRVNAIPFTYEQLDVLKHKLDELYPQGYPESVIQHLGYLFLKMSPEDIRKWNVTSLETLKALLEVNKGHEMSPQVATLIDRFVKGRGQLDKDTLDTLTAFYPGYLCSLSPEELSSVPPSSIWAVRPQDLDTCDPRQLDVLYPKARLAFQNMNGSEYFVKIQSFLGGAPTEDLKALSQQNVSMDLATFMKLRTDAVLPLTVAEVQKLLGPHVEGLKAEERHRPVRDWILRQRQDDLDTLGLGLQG
Method: First, in order to encode the mesothelin peptide, mesothelin peptide was dispensed into a 96-well plate at an amount of 100 ng/well and reacted overnight at 4° C. Then, after treatment with 1×PBST containing 3% BSA, it was blocked for 30 minutes at room temperature. […] The secondary antibody (anti-HRP, 1:10,000) was treated and reacted at room temperature for 30 minutes, washed three times with 1×PBST, and then treated with TMB for color development and reacted at room temperature for 5 minutes. Finally, the reaction was terminated by treatment with a stop solution of 1N H₂SO₄, and then the absorbance was measured at 450 nm.

Binder | OD 450 measurements
B1 | 1.64 OD 450
B2 | 0.758 OD 450
B3 | 1.27 OD 450
B4 | 1.52 OD 450
B5 | 1.49 OD 450
B6 | 1.35 OD 450
